Our source for the amyloid nucleation score values is the supplement of paper PMC12042874.

± gives the uncertainty stated by the source.

The data set is described as follows: amyloid nucleation score (Sup35N fusion, yeast selection) (log enrichment); library NNK3; higher = more nucleation; inactive = no reads after selection. The essentials:
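Sup35N was fused to peptides of 20 random codons and expressed in psi-negative yeast, which were induced with 100 μM copper sulfate for 24 hours and then grown on medium lacking adenine and uracil for 7 days at 30°C. Plasmid inserts from input and output were sequenced on Illumina. The nucleation score is the DiMSum log enrichment of output over input reads, centred on the mode score of non-aggregating sequences. Sequences with under 100 input reads were left out, and random libraries had three technical output replicates.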
In the case of RRKYW, the amyloid nucleation score result was “inactive”.

On to STAWALAIAAVDRNFDSGWW, for which the amyloid nucleation score turned out to be 0.009 ± 1.1. The value for REFPRGWLLGLLCFRLYLLE was “inactive”. The figure for YWDDWLNSTGRDPSHKPRRT is 1.95 ± 0.07; for MHYICAGSGSWAI it is “inactive”; for ILGIRYVIRINFLTRVRIHN it is “inactive”. Regarding LCGPSDLAT, the amyloid nucleation score was determined as 0.096 ± 0.66. As to AWSLVGMHAVNNFHLKQEFL, the amyloid nucleation score entry was “inactive”.

Consider YYDYLRWLLEHIHFCTWGPY, for which the amyloid nucleation score entry was “inactive”. The entry for TYTYIGIKAFCDLYRSKMGV is “inactive”; for TTDLKC it is “inactive”; for YGFAYV it is -0.336 ± 1.1.

Regarding EHLRMCNLATIKLILLNVHP, the amyloid nucleation score entry is “inactive”. The value for VTAFCWGLQRIVGIECSMLE was “inactive”. In the case of WCSPQFRLSFYLGISNDHWC, the amyloid nucleation score was determined as 0.966 ± 0.09.

MRNGCCNACKILLDIRLFL yielded an amyloid nucleation score of 1.96 ± 0.059. The entry for LHVFSECRFIRSLLGPNGIF is “inactive”; for LETMN it is “inactive”.

Regarding QYLFCVVGGWIVRYLWPWML, the amyloid nucleation score result is “inactive”. RSVRFFVKMINFFASY gave an amyloid nucleation score of 1.04 ± 0.15. On to LRYNRDVTS, for which the amyloid nucleation score result is “inactive”.

In the case of FVSYRESKKDMQACCALCRS, the amyloid nucleation score was 0.965 ± 0.11. As for ATCWDEYDPRDPLA, the amyloid nucleation score entry is “inactive”.

Regarding NLKRTQLFLHLFRMGCFHT, the amyloid nucleation score entry is “inactive”.

With PYYRRMPVDSARRTSKSK, the amyloid nucleation score entry was “inactive”. The entry for QYKSMAGSLWFNSVQEQASK is “inactive”. The figure for ASMLALCVLMHRLEPIRSFN is 0.64 ± 0.2; for IRCMSLYLHNGGVYRS it is 1.72 ± 0.069; for SNGCKMYDKHVLYW it is “inactive”. The entry for NWYSLKGVISNFSAVFSHGY is “inactive”. On to DGLQSN, for which the amyloid nucleation score entry is “inactive”. As to ISLFGIMWIRLLHLRHESKA, the amyloid nucleation score entry was “inactive”. The value for HLYYAP was “inactive”; that for RLLLMIL was “inactive”; that for NLQLESFYWFGPRGVRKHLE was “inactive”. The value for LVVCKLRV was “inactive”.

With KLVATVFTSRCATVWLVQGF, the amyloid nucleation score result was “inactive”. The value for QCFCILDFMYWIHARSIM was “inactive”; that for LFVKMR was -0.219 ± 0.32. The figure for NFNYNQQLSVLLLVFGWTWR is 1.83 ± 0.075; for VLLVLVI it is “inactive”.

With CSALC, the amyloid nucleation score entry was “inactive”.

Regarding KWLMNSNFAWLI, the amyloid nucleation score entry is “inactive”.

In the case of YFGCSYTNQAFGRSDSSYVD, the amyloid nucleation score entry is “inactive”. The value for KSVYMHTGPGKGNRVVEKCM was “inactive”.

Take IKKQYINSFIDSATMKGIKV: the amyloid nucleation score result was “inactive”. Take SISYINRKHTRNDTPRLRGV: the amyloid nucleation score entry is “inactive”.

Take FISPVL: the amyloid nucleation score result is “inactive”. For RRYPRTLYERVSCVS, the amyloid nucleation score entry is “inactive”. The value for IIVLPEKRPR was “inactive”.

The substance VVFYTSGARDRICHMDVHRP had an amyloid nucleation score of 0.113 ± 0.69.

In the case of VHLGSFDFIFLNMSSTRSLG, the amyloid nucleation score result was “inactive”. The entry for CCVCLCACRLFCSIVADYRR is “inactive”; for SYLYLCRIKVDLPFWSDRLV it is “inactive”; for IVRFNSLHYFWETDKTI it is “inactive”. As for GILCCAL, the amyloid nucleation score result is “inactive”. The entry for LSEWMSESGNFEFCVASLYR is “inactive”. The entry for MMIIL is “inactive”; for DLIQLDALWDVRTHWTWGTP it is “inactive”; for KQADVFIIMSRVIGNRGCLF it is “inactive”. The value for SKFFQQPWL was “inactive”; that for VGHFISYCNRIFSAKAIIVF was “inactive”.

As for GLVVVT, the amyloid nucleation score result is “inactive”. The entry for FSPCISDCGVDESIKVLRKM is “inactive”; for GVSLATSYKMLLGVIVLGME it is 0.697 ± 0.18.

With VMWPIGSCDRE, the amyloid nucleation score entry is “inactive”. The figure for QFMYMFRARRTCGLNNGGQD is -0.689 ± 1.5; for RDLCIPWLCRAFFPAMCVVI it is “inactive”. The figure for HDNRDDRIVFFARLDHSRRS is 0.626 ± 0.34. The value for HRIVHDSVLKRVFDYFR was “inactive”; that for TRDFRTCNGLANKVRSKVCS was “inactive”; that for GFGESGNR was “inactive”. With ILPPNWATSRVNAAGWFLGQ, the amyloid nucleation score result was “inactive”.

For the substance SVVFLLRIAWYWGLWIVLLL, the amyloid nucleation score result is “inactive”.

With IHILTKVWFSCVRRSLS, the amyloid nucleation score entry was “inactive”. The figure for YCSCMLTGNMGRSH is -0.032 ± 0.33; for ADVNTL it is “inactive”; for WRFFVVRKNSTSA it is “inactive”. The entry for VQGSTIGG is “inactive”; for HIVKIRSG it is “inactive”. YDELY: the amyloid nucleation score result is “inactive”. The entry for IWGPTADKSRSVIGSVIKQG is “inactive”. The value for RYLLPQIPLLYKWKLLILHG was “inactive”; that for IVTHSMSSAHINRMNSRQ was “inactive”; that for MSFVSSRGVNKWQVETGLLE was “inactive”. The value for ELGHSKSTMFNVYYVVWSRC was “inactive”; that for KRSSA was “inactive”. Take IFCAKSIIGIPGTDPRCRPD: the amyloid nucleation score is 1.5 ± 0.13. The value for AFSKRSSWNNHFICVNDVVQ was “inactive”; that for FLLVYWLVLVFPIVGNLMPE was “inactive”.

SGTFYANVWFRFISFGWYLR: the amyloid nucleation score result was “inactive”. As for WTSHPYWSL, the amyloid nucleation score result was “inactive”. The value for VIMGDINQVAQPGDLRRFRC was -0.423 ± 1.4; that for VQFLRFQVHELFSRPFIA was “inactive”. In the case of KSMIAGVTMWLLCTVSLSYN, the amyloid nucleation score result is “inactive”. With MSMVFIVSCNDDIYTRAR, the amyloid nucleation score came out at 0.119 ± 0.24.

Consider YLVSLRLVYSNILEFVKRVC, for which the amyloid nucleation score result is “inactive”.

Regarding RVFNIEYMLECAFFRTIRD, the amyloid nucleation score entry was “inactive”. The value for LRPRYSAYILQSRR was “inactive”. The figure for RSAKAYLTLWCRMYNPRIYM is -0.345 ± 1.3; for NKNQIDQASSWFPR it is “inactive”; for LFNYLFLVP it is “inactive”.

For WKALFSSTSCYTGVG, the amyloid nucleation score entry was “inactive”. Turning to CVVNLHSRIEARLLQIYRAV, the amyloid nucleation score result was “inactive”. The value for KGFRAVCWICIYRDEY was -0.533 ± 0.84; that for FDLWFIRIGV was -0.221 ± 0.46. The entry for LCETCKNVARIYSFLIGMTD is “inactive”; for LVSEPFQMRSTGGIGLIAVY it is “inactive”; for HFVKVE it is “inactive”. The figure for NLVTVLIISRWGAGLR is 1.17 ± 0.17. With VNFILSTAHLL, the amyloid nucleation score entry was “inactive”.

Substance MLCHLVMTSSLSRFLDRGFR registered an amyloid nucleation score of 1.26 ± 0.1. The entry for LITEGYAYFLNWVFRYISYW is “inactive”; for VTHLPTDIGMC it is 0.894 ± 0.12.

For ERESKNLLQVAYSGYCIVWA, the amyloid nucleation score entry is “inactive”. The entry for ILRPPKAA is “inactive”; for GSRDYCVVNSIESDNCFQGW it is “inactive”. The value for PMCFSSHRFGTCRINWHVPG was “inactive”; that for IFVQAYLRGSEICALGDWRL was “inactive”. The entry for IHDMVQYERCDNRNSNRVHE is “inactive”.

With FYFYSVCYYGRWIKKPCHLR, the amyloid nucleation score result is “inactive”. The figure for TKGNCSAHPRRL is -0.581 ± 1.4; for NSRYQILITLDLC it is “inactive”; for RYVEWYLR it is “inactive”. The value for YGHSRWSKISHRSSACLFGS was “inactive”; that for QYFVP was “inactive”.

As to VMRFHVLKVLACCVNGGFDL, the amyloid nucleation score stood at 2.73 ± 0.072.

In the case of YMLLCPRPRGRSLRINNNDE, the amyloid nucleation score result is “inactive”. The value for MWLRFKDFVVRWN was “inactive”; that for SFNNACVFYMNSWLRWRI was 1.96 ± 0.083. The value for VVITYSFRVQHV was “inactive”; that for CDVLYRILRYIYSGKLLFSE was “inactive”.

On to YVLQTFEGSCVLKRLHIRFM, for which the amyloid nucleation score result was “inactive”.
